Key:
[1] = system: recombinant wild type full-length human galectin-3, His-tagged (unphosphorylated)
[2] = system: recombinant wild type galectin-3 phosphorylated in vitro by c-Abl (galectin-3 Tyr(P)-107), His-tagged
[3] = system: galectin-3 secreted by PC3M cells after EGF (and PDGF) treatment, tyrosine phosphorylated (galectin-3 Tyr(P)-107)
Sequence of galectin-3 secreted by PC3M cells after EGF (and PDGF) treatment, tyrosine phosphorylated (galectin-3 Tyr(P)-107) (chain, as listed by the source): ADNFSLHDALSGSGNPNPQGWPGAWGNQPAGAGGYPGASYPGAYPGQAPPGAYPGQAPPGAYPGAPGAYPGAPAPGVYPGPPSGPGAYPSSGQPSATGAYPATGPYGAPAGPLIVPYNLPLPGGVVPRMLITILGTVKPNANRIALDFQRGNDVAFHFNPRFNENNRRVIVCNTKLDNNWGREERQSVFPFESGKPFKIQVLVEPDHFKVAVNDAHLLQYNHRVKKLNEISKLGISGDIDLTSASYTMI

Sequence of recombinant wild type galectin-3 phosphorylated in vitro by c-Abl (galectin-3 Tyr(P)-107), His-tagged (chain, as listed by the source): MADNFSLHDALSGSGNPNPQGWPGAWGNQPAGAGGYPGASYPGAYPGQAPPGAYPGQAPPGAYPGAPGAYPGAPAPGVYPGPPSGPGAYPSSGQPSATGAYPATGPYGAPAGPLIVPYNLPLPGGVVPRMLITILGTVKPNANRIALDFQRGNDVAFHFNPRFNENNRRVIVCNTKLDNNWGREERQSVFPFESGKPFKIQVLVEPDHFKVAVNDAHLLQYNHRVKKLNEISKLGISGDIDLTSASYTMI

active prostate specific antigen (PSA)
cleavage of galectin-3 by PSA (2 h at room temperature, Western blot with anti-galectin-3 antibody) [1]: FIG. 1A demonstrated that phosphorylation of Tyr-107 blocks the cleavage of galectin-3 by PSA
cleavage of galectin-3 by PSA (2 h at room temperature, Western blot with anti-galectin-3 and anti-Tyr(P) antibodies) [2]: phosphorylation of Tyr-107 blocks the cleavage of galectin-3 by PSA

endogenous PSA secreted by LNCaP cells
cleavage of secreted galectin-3 in conditioned medium of LNCaP/PC3M co-culture with and without EGF (Western blot with HL31) [3]: phosphorylation blocks cleavage of galectin-3 in conditioned medium

phosphatase and tensin homolog (PTEN)
dephosphorylation of galectin-3 Tyr(P)-107 (PTEN for 2 hr at 30 C, pTyr and Gal-3 blots) [2]: This was then proven by phosphorylating galectin-3 in vitro with active c-Abl and then treating it with PTEN
